This data set has as its target T1, EsCas13d, nuclease-dead (Eubacterium siraeum, UniProt B0MS50, R295A;H300A;R849A;H854A).
T1 sequence: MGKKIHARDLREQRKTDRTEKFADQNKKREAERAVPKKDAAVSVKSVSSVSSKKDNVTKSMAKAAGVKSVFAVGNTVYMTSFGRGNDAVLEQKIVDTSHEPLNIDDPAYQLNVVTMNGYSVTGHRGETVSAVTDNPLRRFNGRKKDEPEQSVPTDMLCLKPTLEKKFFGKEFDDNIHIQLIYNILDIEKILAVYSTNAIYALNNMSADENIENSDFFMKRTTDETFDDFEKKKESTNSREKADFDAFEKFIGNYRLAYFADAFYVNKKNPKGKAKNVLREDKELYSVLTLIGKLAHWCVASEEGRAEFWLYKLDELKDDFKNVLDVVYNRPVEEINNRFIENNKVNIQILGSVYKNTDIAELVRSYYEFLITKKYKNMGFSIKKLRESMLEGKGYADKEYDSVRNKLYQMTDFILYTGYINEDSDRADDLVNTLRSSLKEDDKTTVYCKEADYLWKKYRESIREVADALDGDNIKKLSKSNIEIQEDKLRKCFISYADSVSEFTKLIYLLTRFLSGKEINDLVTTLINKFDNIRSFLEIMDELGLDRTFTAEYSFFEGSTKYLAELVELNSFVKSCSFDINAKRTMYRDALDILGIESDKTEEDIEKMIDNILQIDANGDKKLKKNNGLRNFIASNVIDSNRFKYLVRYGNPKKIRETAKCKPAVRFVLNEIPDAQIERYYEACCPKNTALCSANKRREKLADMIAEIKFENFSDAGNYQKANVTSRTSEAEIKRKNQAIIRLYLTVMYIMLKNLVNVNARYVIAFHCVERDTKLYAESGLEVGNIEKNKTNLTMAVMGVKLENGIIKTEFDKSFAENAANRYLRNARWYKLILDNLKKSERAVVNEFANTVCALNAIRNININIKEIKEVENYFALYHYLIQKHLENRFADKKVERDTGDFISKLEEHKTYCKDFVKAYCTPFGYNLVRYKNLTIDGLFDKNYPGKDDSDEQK
Briefly: BLI; crRNA (strand 1, pre-loaded); Mg2+; 40 mM Tris-HCl pH 7.5, 150 mM NaCl, 6 mM MgCl2, 1 mM DTT, 0.1% Tween-20, 0.2 mg/ml BSA; temperature not stated. Particulars: tags: His6-TwinStrep-SUMO cleaved; label: 3' biotin on strand 2.

Experimental findings from publication PMC10786891, “Massively parallel profiling of RNA-targeting CRISPR-Cas13d” are described below.

B1: crRNA-1 (D950N) target (mixed)
RNA 1: CACCCGUGCAAAAUUGCAGGGGUCUAAAACUUUUGGUUGACCACAUCUUGAA
RNA 2: UUGGAAAACUUCAAAAUGUGGUCAACCAAAAUGCACAAGC
Turning to B1, the affinity, expressed as Kd, was 15 nM.

B2: crRNA-2 (D950N) target (mixed)
RNA 1: CACCCGUGCAAAAUUGCAGGGGUCUAAAACCUUGAAGUUUUCCAAGUGCACU
RNA 2: UCCACAGCAAGUGCACUUGGAAAACUUCAAAAUGUGGUCA
For the molecule B2, the Kd – broadly, the free concentration of one partner at which half of the binding sites on the other are occupied at equilibrium, for simple one-to-one binding – came out at 2.9 nM.
